Paper PMC3299833

What was measured:
[1] = target: E. coli expressed recombinant PKM2 (rPKM2) (human) (UniProt P14618); experiment: SEC
[2] = target: Pyruvate kinase isoform M2 (PKM2), endogenous (human (endogenous in SW620 and SW480)) (UniProt P14618); experiment: SEC

E. coli expressed recombinant PKM2 (rPKM2), P14618 1-531 (enzyme; other documents disagree on this pair), sequence (P14618 whole entry): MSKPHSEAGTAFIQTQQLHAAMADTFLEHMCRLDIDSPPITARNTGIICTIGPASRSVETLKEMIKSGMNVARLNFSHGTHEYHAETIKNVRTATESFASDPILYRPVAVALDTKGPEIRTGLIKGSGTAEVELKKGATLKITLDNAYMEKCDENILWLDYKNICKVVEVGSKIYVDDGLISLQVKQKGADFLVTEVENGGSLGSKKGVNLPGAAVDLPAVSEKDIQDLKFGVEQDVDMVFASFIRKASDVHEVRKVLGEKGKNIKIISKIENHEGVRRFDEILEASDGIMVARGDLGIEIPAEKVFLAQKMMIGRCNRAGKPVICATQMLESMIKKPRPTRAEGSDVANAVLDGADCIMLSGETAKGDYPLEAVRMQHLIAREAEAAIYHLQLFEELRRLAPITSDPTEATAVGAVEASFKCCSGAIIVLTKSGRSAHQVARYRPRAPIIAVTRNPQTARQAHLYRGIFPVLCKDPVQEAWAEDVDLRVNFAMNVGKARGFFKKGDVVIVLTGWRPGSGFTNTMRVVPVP
Pyruvate kinase isoform M2 (PKM2), endogenous, P14618 1-531 (enzyme; other documents disagree on this pair), sequence (P14618 whole entry, canonical isoform): as the sequence (P14618 whole entry) above

Row | stoichiometry N [1] | stoichiometry N [2] | Substance
1 | 2 |  | E. coli expressed recombinant PKM2 (rPKM2), P14618 1-531 (enzyme; other documents disagree on this pair)
2 |  | 2 | Pyruvate kinase isoform M2 (PKM2), endogenous, P14618 1-531 (enzyme; other documents disagree on this pair)
